Reference: publication PMC12071944, “Interaction Between Glucagon-like Peptide 1 and Its Analogs with Amyloid-β Peptide Affects Its Fibrillation and Cytotoxicity” (International Journal of Molecular Sciences, 2025)

Target: the molecule itself
Experiment: dynamic light scattering; 5–83 µM GLP-1(7-37); 25 °C; 25 mM Tris-HCl, 140 mM NaCl, 4.9 mM KCl, 2.5 mM CaCl2, 1 mM MgCl2, pH 7.4; degree of multimerization MWRh/MWm

HAEGTFTSDVSSYLEGQAAKEFIAWLVKGRG (peptide, UniProt P01275 98-128, looked up, also called GLP-1(7-37); GLP-1) [glucagon-like peptide 1, residues 7-37]
stoichiometry N: > 210
